Laboratory results taken from PMC12014896 (2025).

B1: COVIC-28 (antibody, V domains shown)
VH: QVQLVQSGAEVKKPGASVKVSCKASGYTFTSYYMHWVRQAPGQGLEWMGIINSSGGSTSYAQKFQGRVTMTRDTSTSTVYMELSSLRSEDTAVYYCARPPRNYYDRSGYYQRAEYFQHWGQGTLVTVSS
VL: DIQLTQSPSSLSASVGDRVTITCQASQDISNYLNWYQQRPGKAPKLLIYDASNLETGVPSRFSGSGSGTDFTFTISSLQPEDIATYYCQQYDNPPLTFGGGTKLEIK
B2: COVIC-334 (antibody, V domains shown)
VH: QMQLVQSGPEVKKPGTSVKVSCKASGFTFSSSAVQWVRQARGQGLEWIGWIVVGSGNANYAQKLQERVSITRDMSTSTAYMELSSLRPEDTAVYYCAAPHCSRTICHDGFDMWGQGTMVTVSS
VL: EIVLTQSPGTLSLSPGERATLSCRASQSVRSSYLAWYQQKPGQAPRLLMFVASSRATGIPDRFSGSGSGTDFTLTISRLEPEDFAVYYCQQYDTSPWTFGQGTKVEIK
B3: COVIC-359 (antibody, V domains shown)
VH: EVQLVESGGGLVQPGGSLRLSCKASGISVAPHAVTWVRQAPGKGLEWIGVIASNADTYYASWAKGRFTISRDNSKNTLYLQMNSLRAEDTAVYYCARHPGSAGYGYTYYYAMDPWGQGTLVTVSS
VL: DIQMTQSPSSLSASVGDRVTITCKASEDIRYGLNWYQQKPGKAPKLLIYGANTLEAGVPSRFSGSGSGTDYTLTISSLQPEDFATYYCQQGYSTPLTFGGGTKVEIK
B4: COVIC-303 (antibody, V domains shown)
VH: QVTLKESGPVLVKPTETLTLTCTVSGFSLSNARMGVSWIRQPPGKALEWLAHIFSNGEKSYSTSLKSRLTISKDTSKSQVVLTMTNMDPVDTATYYCARTLDYYDSSGYLVGGAFDIWGQGTMVTVSS
VL: QPGLTQPPSVSLAPGQTARITCGGNNIGSKSVHWYQQKPGQAPVLVVYDDSDRPSGIPERFSGSNAGNTATLTISRVEAGDEADYYCQVWDSRSDQYVFGTRTKLTVLG
B5: COVIC-157 (antibody, V domains shown)
VH: EVQLVESGGGLIQPGGSLRLSCAASGFTVSSNYMNWVRQAPGKGLEWVSVIYSGGSTYYADSVKGRFTISRDNSKNTLYLQMNSLRTEDTAVYYCARDLVAYGMDVWGQGTTVTVSS
VL: DIQLTQSPSFLSASVGDRVTITCWASQGISSYLAWYQQKPGKAPKVLIYAASTLQSGVPSRFSGSGSGTEFTLTISSLQPEDFATYYCQLLNSNPLTFGGGTKVEIKR
B6: COVIC-147 (antibody, V domains shown)
VH: EVQLVESGGGLIQPGGSLRLSCAASGFTVSSIYMSWVRQAPGKGLEWVSIIYSRGSTDYADSVKGRFTISRDISKNTLYLQMNSLRAEDTAVYYCARDGTMVRGVHAFDIWGQGTMVTVSS
VL: DIQMTQSPPSLSASIGDRVTITCQASQDISNYLNWYQQKPGKAPKLLIYDASNLETGVPSRFSGSGSGTDFTLTISNLQPEDIVTYYCQQYDNLPSSFGQGTKLEIKR
B7: COVIC-260 (antibody, V domains shown)
VH: QVQLQESGPGLVKPSETLSLTCSVSGDSISSSDYSWGWIRQPPGKGLEWIGTIYYIKNTYYNPSLRSRVTLSVDTSKNLFSLKLSSVTAADTAVYYCARERPPFDVVVVPAARPYNWFDPWGLGTLVIVSS
VL: QSVLMQPPSVSGAPGQRVTISCTGSSSNIGAGYDVHWYQQLPGTAPKLLIYGNNNRPSGVPDRFSGSKSGTSASLAITGLQADDEADYYCQSYDSSLSGSKVFGGGTKLTVLG
B8: COVIC-185 (antibody, V domains shown)
VH: QVQLVQSGAEVKKPGASVRVSCKASGYTFTGYYMHWVRQAPGQGLEWMGWINPISDGTNYAQKFQGWVTMTRDTSISTVYMELSRLRSDDTAVYYCARGGSRCSGGNCYGWAYDAFDIWGQGTMITVSS
VL: QSALTQPASVSGSPGQSITISCTGTSSDVGGYNFVSWYQQHPGKAPKLMIYDVSKRPSGVSNRFSGSKSGNTASLTISGLQAEDEADCYCSSYTSSSTFVFGTGTKVTVL

Each binder was assayed against SARS-CoV-2 spike RBD (Wuhan-Hu-1) (Severe acute respiratory syndrome …, UniProt P0DTC2) (assay: SPR).

Point of comparison: B2, Kd 0.0568 nM. Against it:
- B1 — 220-fold higher, 12.3 nM
- B3 — 4.1-fold lower, 0.0139 nM
- B4 — 3-fold higher, 0.168 nM
- B5 — 120-fold higher, 6.65 nM
- B6 — 40-fold higher, 2.3 nM
- B7 — within 1.5-fold, 0.0696 nM
- B8 — 220-fold higher, 12.3 nM
